This note sets out measurements from paper PMC6272300, “Characterization of a (2R,3R)-2,3-Butanediol Dehydrogenase from Rhodococcus erythropolis WZ010” (Molecules, 2015).

Holding throughout (experiment): purified protein
Substrate in data set [1]: C[C@@H](O)[C@@H](C)O
As to conditions: oxidation, 0.64 mM NAD+, 50 mM CAPS pH 10.0, 45 °C (b26 prints the pH and temperature of the two directions swapped).

Substrate in data set [2]: CC(=O)C(C)=O
It counts as biochemical, Rhodococcus erythropolis. As to conditions: reduction; 0.4 mM NADH; 50 mM PIPES pH 6.5, 55 °C (swapped); pH 6.5; 55.0 °C.

Substrate in data set [3]: NC(=O)C1=CN([C@@H]2O[C@H](COP(=O)(O)OP(=O)(O)OC[C@H]3O[C@@H](n4cnc5c(N)ncnc54)[C@H](O)[C@@H]3O)[C@@H](O)[C@H]2O)C=CC1
It is filed as biochemical, Rhodococcus erythropolis. The note with it: reduction; 50 mM diacetyl; 50 mM PIPES pH 6.5, 55 °C; pH 6.5; 55.0 °C; varied: cofactor.

Substrate in data set [4]: NC(=O)c1ccc[n+]([C@@H]2O[C@H](COP(=O)(O)OP(=O)(O)OC[C@H]3O[C@@H](n4cnc5c(N)ncnc54)[C@H](O)[C@@H]3O)[C@@H](O)[C@H]2O)c1
It is filed as biochemical, Rhodococcus erythropolis. The note with it: oxidation; 50 mM (2R,3R)-2,3-butanediol; 50 mM CAPS pH 10.0, 45 °C; pH 10.0; 45.0 °C; varied: cofactor.

B1: ReBDH (Rhodococcus erythropolis PR4) (protein)
chain: MKAARFHGQKDIRIEEIPEPELRPGTVKLKVAWCGICGTDLHEYLEGPIFISAPGHPHPLSHENAPVTMGHEFSGTVEEVGEGVTDVEVGENVVVEPYFVCNECAPCKAGNYHLCTKMGFIGLAGGGGGLSEKVVVDRRWIHKIGNIPLDEAALIEPLSVAHHAVVRSGAESGNVAIVGGAGPIGLLVAAVLKGLGVTTIVTELSEARKAKALSSGVADYVIDPTTEDVKARVLELSGGIGADIGFECAGVNAVLDTMLDTVRPAGVVVNVSIWGKPATIDMQKLVLKEIDLRGTIAYVRDHEAVIKMVQDGVVDLAPFITGRIQLEELISEGFTTLIEHNDTAVKILVRS
notes: full length, 351 residues, deduced 37180 Da; N-terminal His-tag (pEASY-E1) kept, E. coli BL21(DE3), Ni-NTA; native 45 kDa monomer
Regarding B1, in data set [1], the Km – broadly, the substrate concentration at which the rate is half of its maximum – was 580 ± 50 µM; the Vmax (usually the top rate of the reaction or transport when substrate is in excess) turned out to be 6.65 µmol/min/mg; the kcat – broadly, the number of substrate molecules converted per active site and unit of time at saturation – was 4.28 s⁻¹; the specificity constant (kcat/Km) – broadly, the turnover number divided by the Michaelis constant – came out at 7380 M⁻¹ s⁻¹. Also, in data set [2], the Michaelis constant (Km) was 100 ± 10 µM, the Vmax was 9.49 µmol/min/mg, the kcat came to 6.11 ± 0.14 s⁻¹ and the catalytic efficiency (kcat/Km) is 61100 ± 7650 M⁻¹ s⁻¹. For the same protein, in data set [3], the Km is 80 ± 10 µM, the maximum rate (Vmax) came to 8.92 µmol/min/mg, the kcat is 5.73 ± 0.08 s⁻¹ and the kcat/Km was determined as 71600 ± 10100 M⁻¹ s⁻¹. Further, in data set [4], the Km came out at 1040 ± 110 µM, the Vmax is 16 µmol/min/mg, the kcat is 10.3 ± 0.69 s⁻¹ and the kcat/Km was determined as 9880 ± 1780 M⁻¹ s⁻¹.
